# Measurements taken from US20220282217A1 (BIONTECH US, published 2022).
# Target: T1, HLA class I molecule B08.01
# T1 construct: Purified MHC class I complex; also called HLA-B08:01
# Assay: pMHC-I dissociation assay with 125I-labeled beta2m light chain at 37 C, scintillation counts; time in hours for half of the complexes to dissociate
# Experimental: Briefly, synthetic genes encoding biotinylated MHC-I heavy and light chains are expressed in E. coli and purified from inclusion bodies using standard methods. […] These reactions are carried out in streptavidin coated microplates to bind the biotinylated MHC-I heavy chains to the surface and allow measurement of radiolabeled light chain to monitor complex formation. Dissociation is initiated by addition of higher concentrations of unlabeled light-chain and incubation at 37° C. Stability is defined as the length of time in hours it takes for half of the complexes to dissociate, as measured by scintillation counts.
row,Observed MHC Stability [h],Binder
1,0.4,IMKPKRDGYM (also called GATA3 . . ; CSNH)
2,0,FLKAESKIMF (also called GATA3 . . ; CSNH)
3,1.3,ESKIMFATL (also called GATA3 . . ; CSNH)
4,1.2,FLKAESKIM (also called GATA3 . . ; CSNH)
5,0,LHFCRSSIM (also called GATA3 . . ; CSNH)

# Target: T1, HLA class I molecule B08.01
# Assay: pMHC-I dissociation half-life, 125I-b2m
# Method in brief: (§1)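 Biotinylated MHC-I heavy chain made in E. coli, captured on streptavidin plates and complexed with peptide and radiolabelled light chain. Dissociation started with excess unlabelled light chain at 37 °C. Stability is the half-life in hours from scintillation counts.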
row,Binder,Stability (T1/2 (h)) [h]
1,"KLSDSRTAL (also called FRG1B, I1OT)",0
2,LLALWECSL (also called MSH3(-1)),0

# The remaining lines, values ahead:
row,Stability (T1/2 (h)) [h],Binder
1,0,LLYITAFFL (also called NDUFC2 (-KCDT14)(-1))
2,0,"LQVLHECNSL (also called MEK, P124L)"
3,0,"QVLHECNSL (also called MEK, P124L)"

# Target: T2, HLA-A02.01 (human)
# T2 construct: Purified class I MHC
# Assay: pMHC-I dissociation half-life, 125I-b2m
# Method in brief: as §1
row,Stability (T1/2 (h)) [h],Binder
1,0.4,"GMNQRPILTI (also called TP53, R248Q)"
2,0,"SMNRRPILT (also called TP53, G245S)"
3,0,"CMGGMNQRPI (also called TP53, R248Q)"

# Target: T3, HLA-B08.01 (human)
# T3 construct: Purified class I MHC
# Assay: pMHC-I dissociation half-life, 125I-b2m
# Method in brief: as §1
row,Binder,Stability (T1/2 (h)) [h]
1,"GMNQRPILTI (also called TP53, R248Q)",0
2,"GMNWRPILTI (also called TP53, R248W)",0
3,"CMGSMNRRPI (also called TP53, G245S)",0
4,"CMGGMNQRPI (also called TP53, R248Q)",0
5,"CMGGMNWRPI (also called TP53, R248W)",0

# The next lines start with the values.
row,Stability (T1/2 (h)) [h],Binder
1,0,"LPRKPTRAA (also called TP53, QPSL)"
2,0,"SMNRRPILT (also called TP53, G245S)"
3,0,"MLTDSLFLPI (also called VHL, QCIL)"
4,0,"NQRPILTII (also called TP53, R248Q)"
5,0,"SMNRRPILTI (also called TP53, G245S)"
6,0,"MNWRPILTI (also called TP53, R248W)"

# Target: T4, HLA class I molecule A02.01
# T4 construct: Purified MHC class I complex; also called HLA-A02:01
# Assay: pMHC-I dissociation half-life, 125I-b2m
# Method in brief: as §1
row,Stability (T1/2 (h)) [h],Binder
1,4,LLALWECSL (also called MSH3(-1))
2,17,LLYITAFFL (also called NDUFC2 (-KCDT14)(-1))
3,0,"LQVLHECNSL (also called MEK, P124L)"
4,0.5,"QVLHECNSL (also called MEK, P124L)"

# Target: T5, HLA-B07.02 (human)
# T5 construct: Purified class I MHC
# Assay: competition with radiolabeled reference peptide, purified MHC I
# Experimental: (§2) Peptides were incubated at varying concentrations with these complexes for 2 days, and the amount of remaining radiolabeled peptide bound to […] was measured using size exclusion gel-filtration.
row,IC50 [nM],Binder
1,78,KSRQNHLQL (also called SMAP1(-1))
2,826,RVQNQGHLL (also called UBR5(-1))
3,223,ALKKLRSPL (also called SMAP1(-1))

# Target: T2, HLA-A02.01
# Assay: as above
# Experimental: as §2
row,IC50 [nM],Binder
1,709,"GMNQRPILTI (also called TP53, R248Q)"
2,3840,"SMNRRPILT (also called TP53, G245S)"
3,3670,"CMGGMNQRPI (also called TP53, R248Q)"

# Target: T6, HLA class I molecule A01.01
# T6 construct: Purified MHC class I complex; also called HLA-A01:01
# Assay: competition with radiolabeled reference peptide on purified MHC I
# Experimental: as §2
row,Binder,IC50 [nM]
1,GSNEVTTRY (also called RBM27(+1)),606
2,"ILDTAGHEEY (also called KRAS, Q61H)",64.2
3,"ILDTAGLEEY (also called KRAS, Q61L)",8.6
4,"ILDTAGKEEY (also called NRAS, Q61K)",14.3
5,"ILDTAGREEY (also called NRAS, Q61R)",7

# Results, then the binder that gave them:
row,IC50 [nM],Binder
1,15500,TGSNEVTTRY (also called RBM27(+1))
2,4.4,"TTNAFSGEY (also called RAC1, P29S)"
3,10.5,"YTTNAFSGEY (also called RAC1, P29S)"

# Target: T7, HLA class I molecule A24.02
# T7 construct: Purified MHC class I complex; also called HLA-A24:02
# Assay: as above
# Experimental: as §2
row,IC50 [nM],Binder
1,60.1,LLYITAFFLL (also called NDUFC2 (-KCDT14)(-1))
2,45.3,LYITAFFFCW (also called NDUFC2 (-KCDT14)(+1))
3,332,MFLKAESKI (also called GATA3 . . ; CSNH)
4,0.4,LYITAFFLLD (also called NDUFC2 (-KCDT14)(-1))
5,0.1,LYITAFFLL (also called NDUFC2 (-KCDT14)(-1))

# Target: T8, HLA class I molecule A03.01
# T8 construct: Purified MHC class I complex; also called HLA-A03:01
# Assay: as above
# Experimental: as §2
row,IC50 [nM],Binder
1,57.5,"AISTRDPLSK (also called PIK3CA, E542K)"
2,185,FFCWILSCK (also called NDUFC2 (-KCDT14)(+1))
3,16,VLWTTPPLQH (also called GATA3 . . ; CSNH)
4,597,FFFCWILSCK (also called NDUFC2 (-KCDT14)(+1))

# Target: T4, HLA class I molecule A02.01
# Assay: as above
# Experimental: as §2
row,IC50 [nM],Binder
1,323,LLYITAFFLL (also called NDUFC2 (-KCDT14)(-1))
2,713,LLYITAFFL (also called NDUFC2 (-KCDT14)(-1))
3,4720,"LQVLHECNSL (also called MEK, P124L)"
4,7770,"QVLHECNSL (also called MEK, P124L)"

# Target: T9, HLA class I molecule B07.02
# T9 construct: Purified MHC class I complex; also called HLA-B07:02
# Assay: as above
# Experimental: as §2
row,Binder,IC50 [nM]
1,HVLPEPHLAL (also called GATA3 . . ; CSNH),1330
2,EPHLALQPL (also called GATA3 . . ; CSNH),17
3,GPPRPPRAAC (also called LMAN1(+1)),48.6

# Second part, the binder after the results:
row,IC50 [nM],Binder
1,2530,RPLQTHVLPE (also called GATA3 . . ; CSNH)
2,72.6,LPQARLCLI (also called MSH3(-1))
3,2110,VPAVPFDLHF (also called GATA3 . . ; CSNH)
4,32.8,PPRPPRAAC (also called LMAN1(+1))
5,109,QPVLWTTPPL (also called GATA3 . . ; CSNH)

# Target: T10, HLA-A24.02 (human)
# T10 construct: As for HLA-A02.01
# Assay: competition vs radiolabeled reference peptide on purified MHC I, gel filtration
# Experimental: as §2
row,Binder,IC50 [nM]
1,FFCYILNTMF (also called CNOT1(-1)),73.4
2,"KFPELLCVW (also called β2M, . . ; SIRH)",13.7
3,"EYMANGSLL (also called BTK, C481S)",5
4,GFKLFSCLSF (also called C15ORF40(+1)),643

# More lines, now with the values ahead:
row,IC50 [nM],Binder
1,141,RRMPPCLANF (also called C15ORF40(+1))
2,658,"VVPLYGLLL (also called ESR1, D538G)"
3,0.8,"LYGLLLEML (also called ESR1, D538G)"
4,8.7,RMPPCLANF (also called C15ORF40(+1))
5,28.2,"RLSSVLQRF (also called β2M, . . ; SQIS)"

# Target: HLA-A02.01 (human)
# Assay: pMHC-I complex dissociation at 37 C, 125I-b2m, half-life
# Method in brief: as §1
row,Stability (T1/2 (h)) [h],Binder
1,0.6,"VVPLYGLLL (also called ESR1, D538G)"

# Target: T10, HLA-A24.02
# Assay: as above
# Method in brief: as §1
row,Stability (T1/2 (h)) [h],Binder
1,0.8,"VVPLYGLLL (also called ESR1, D538G)"
